The values below are quoted from earlier work in paper PMC8083718.

This data set concerns the target ACE2 (Homo sapiens) (UniProt Q9BYF1).

Sequence of ACE2 (Homo sapiens) (Q9BYF1 18-740): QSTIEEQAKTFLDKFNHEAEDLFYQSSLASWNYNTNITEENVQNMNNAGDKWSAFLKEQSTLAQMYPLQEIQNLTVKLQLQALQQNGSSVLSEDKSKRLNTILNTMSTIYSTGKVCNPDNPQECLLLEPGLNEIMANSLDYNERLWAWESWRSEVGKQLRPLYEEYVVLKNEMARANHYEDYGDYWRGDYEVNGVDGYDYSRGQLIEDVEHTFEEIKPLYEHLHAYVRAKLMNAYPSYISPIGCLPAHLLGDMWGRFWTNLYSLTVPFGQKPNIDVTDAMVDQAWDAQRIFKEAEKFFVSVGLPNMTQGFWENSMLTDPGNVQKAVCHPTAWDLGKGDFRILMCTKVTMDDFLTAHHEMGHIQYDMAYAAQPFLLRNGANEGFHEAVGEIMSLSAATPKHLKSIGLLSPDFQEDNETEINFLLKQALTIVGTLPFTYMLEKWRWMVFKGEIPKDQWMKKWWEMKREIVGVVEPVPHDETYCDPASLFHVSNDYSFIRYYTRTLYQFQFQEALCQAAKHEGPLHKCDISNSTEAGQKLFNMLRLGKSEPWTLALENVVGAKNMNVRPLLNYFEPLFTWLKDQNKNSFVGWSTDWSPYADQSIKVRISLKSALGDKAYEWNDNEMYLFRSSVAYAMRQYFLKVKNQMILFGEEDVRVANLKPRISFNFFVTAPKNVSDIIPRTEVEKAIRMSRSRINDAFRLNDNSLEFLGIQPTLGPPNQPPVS

By Kd is commonly meant the concentration at which binding is half-saturated. As to spike protein (from UniProt P59594), the Kd was 0.12 nM.
